Reference: the supplement of paper PMC7877785
± gives the uncertainty stated by the source.

Experiment: self-splicing fitness, log relative to wild type (ln ratio); higher = more splicing; Tetrahymena group I intron in knt gene, E. coli kanamycin selection, DiMSum; sequences stand for … in CUCUCU…GGAGGGAAAAGUUAUCAGGCAUGCACCUGGUAGCUAGUCUUUAAACCAAUAGAUUGCAUCGGUUUAAAAGGCAAGACCGUCAAAUUGCGGGAAAGGGGUCAACAGCCGUUCAGUACCAAGUCUCAGGGGAAACUUUGAGAUGGCCUUGCAAAGGGUAUGGUAAUAAGCUGACGGACAUGGUCCUAACCACGCAGCCAAGUCCUAAGUCAACAGAUCUUCUGUUGAUAUGGAUGCAGUUCACAGACUAAAUGUCGGUCGGGGAAGAUGUAUUCUUCUCAUAAGAUAUAGUCGGACCUCUCCUUAAUGGGAGCUAGCGGAUGAAGUGAUGCAACACUGGAGCCGCUGGGAACUAAUUUGUAUGCGAAAGUAUAUUGAUUAGUUUUGGAGUACUCGUGGUCG
Outline: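 Pooled colonies went to amplicon sequencing on an Illumina HiSeq 2500 after six replicate transformations. The plates were LB agar with 100 μg/mL carbenicillin, 50 μM IPTG and 0.2% rhamnose, with or without 25 μg/mL kanamycin, incubated overnight at 37°C or 30°C. The E. coli BL21(DE3) library had all eight P1ex-region intron nucleotides randomised, the intron placed in the knt kanamycin-resistance gene on pET-22b(+). DiMSum fitness is the error-weighted combination of replicate fold changes, kanamycin against none, normalised to wild type.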

Row | Sequence | self-splicing fitness (ln) (30 °C) | self-splicing fitness (ln) (37 °C)
1 | UGAAAGCAAUAUUACGCCGU | -2.92 ± 0.29 | -1 ± 0.16
2 | UGAAAGCAAUAUUACGCCUC | -1.85 ± 0.28 | 
3 | UGAAAGCAAUAUUACGCGAU | -2.15 ± 0.14 | -2.37 ± 0.19
4 | UGAAAGCAAUAUUACGCUAA | -1 ± 0.12 | -0.805 ± 0.13
5 | UGAAAGCAAUAUUACGCUAG | -1.59 ± 0.15 | 0.503 ± 0.15
6 | UGAAAGCAAUAUUACGGCAU | -1.43 ± 0.076 | -0.236 ± 0.1
7 | UGAAAGCAAUAUUACGGGUU | -4.06 ± 0.27 | -2.06 ± 0.19
8 | UGAAAGCAAUAUUACGGUAA | -1.02 ± 0.085 | -0.765 ± 0.078
9 | UGAAAGCAAUAUUACGUAGA | -1.88 ± 0.097 | -1.56 ± 0.15
10 | UGAAAGCAAUAUUACGUAGG | -0.728 ± 0.095 | -0.459 ± 0.14
11 | UGAAAGCAAUAUUACGUUCC | -1.36 ± 0.11 | -0.98 ± 0.13
12 | UGACAGCAAUAUUACGAAUA | -1.26 ± 0.13 | -0.589 ± 0.14
13 | UGACAGCAAUAUUACGACAC | -0.678 ± 0.12 | -2.04 ± 0.17
14 | UGACAGCAAUAUUACGACCC | -1.52 ± 0.2 | -1.01 ± 0.25
15 | UGACAGCAAUAUUACGACGA | -0.0144 ± 0.099 | 0.355 ± 0.13
16 | UGACAGCAAUAUUACGAGAU | -3.55 ± 0.23 | -2.86 ± 0.26
17 | UGACAGCAAUAUUACGAGCC | -3.37 ± 0.28 | -2.24 ± 0.38
18 | UGACAGCAAUAUUACGAUGA | -0.596 ± 0.068 | -0.119 ± 0.082
19 | UGACAGCAAUAUUACGCUAA | -1.22 ± 0.086 | -0.325 ± 0.093
20 | UGACAGCAAUAUUACGCUAG | -1.37 ± 0.076 | -0.358 ± 0.11
21 | UGACAGCAAUAUUACGCUCA | -0.115 ± 0.11 | -0.155 ± 0.1
22 | UGACAGCAAUAUUACGCUUG | -0.879 ± 0.074 | -0.702 ± 0.11
23 | UGACAGCAAUAUUACGGAGC | -4.35 ± 0.39 | -2.91 ± 0.19
24 | UGACAGCAAUAUUACGGAUG | -0.91 ± 0.054 | -0.91 ± 0.075
25 | UGACAGCAAUAUUACGGCCG | -0.739 ± 0.14 | 0.186 ± 0.19

Row | Sequence | self-splicing fitness (ln) (30 °C) | self-splicing fitness (ln) (37 °C)
26 | UGACAGCAAUAUUACGGCGG | -0.935 ± 0.053 | 0.0557 ± 0.072
27 | UGACAGCAAUAUUACGGUCG | -3.56 ± 0.26 | -1.58 ± 0.21
28 | UGACAGCAAUAUUACGGUGC | -2.01 ± 0.49 | 
29 | UGACAGCAAUAUUACGGUGG | -1.56 ± 0.064 | -0.331 ± 0.082
30 | UGACAGCAAUAUUACGGUUU | -1.07 ± 0.059 | -0.226 ± 0.073
31 | UGACAGCAAUAUUACGUAGG | -1.78 ± 0.079 | -1.31 ± 0.11
32 | UGACAGCAAUAUUACGUCGG | -1.72 ± 0.094 | -0.734 ± 0.11
33 | UGACAGCAAUAUUACGUGGG | -3.76 ± 0.14 | -0.757 ± 0.081
34 | UGACAGCAAUAUUACGUUGA | -1.99 ± 0.094 | -1.9 ± 0.12
35 | UGAGAGCAAUAUUACGAACG | -1.02 ± 0.18 | -1.43 ± 0.33
36 | UGAGAGCAAUAUUACGAAUA | -2.76 ± 0.49 | 
37 | UGAGAGCAAUAUUACGAUAC | -3.92 ± 0.46 | -1.91 ± 0.34
38 | UGAGAGCAAUAUUACGAUGC | -2.13 ± 0.39 | -0.477 ± 0.45
39 | UGAGAGCAAUAUUACGCCAC | -2.36 ± 0.31 | -1.1 ± 0.42
40 | UGAGAGCAAUAUUACGCCGC | -3.41 ± 0.23 | -2.5 ± 0.31
41 | UGAGAGCAAUAUUACGCGUC | -2.95 ± 0.38 | -1.37 ± 0.41
42 | UGAGAGCAAUAUUACGGAUG | -3.61 ± 0.19 | -3.56 ± 0.29
43 | UGAGAGCAAUAUUACGGCAG |  | -1.58 ± 0.31
44 | UGAGAGCAAUAUUACGGCUG | -1.5 ± 0.15 | -0.389 ± 0.26
45 | UGAGAGCAAUAUUACGGGGU |  | -2.4 ± 0.48
46 | UGAGAGCAAUAUUACGGUUG | -2.6 ± 0.12 | -2.64 ± 0.19
47 | UGAGAGCAAUAUUACGUAUC | -0.611 ± 0.42 | -0.408 ± 0.47
48 | UGAGAGCAAUAUUACGUCAC | -2.08 ± 0.4 | 
49 | UGAGAGCAAUAUUACGUGCU | -2.06 ± 0.21 | 
50 | UGAGAGCAAUAUUACGUUGA |  | -2.55 ± 0.24

Row | Sequence | self-splicing fitness (ln) (30 °C) | self-splicing fitness (ln) (37 °C)
51 | UGAGAGCAAUAUUACGUUGG |  | -3 ± 0.27
52 | UGAUAGCAAUAUUACGAGUU | -3.82 ± 0.24 | -2.73 ± 0.21
53 | UGAUAGCAAUAUUACGAUCC | -0.554 ± 0.12 | 0.433 ± 0.15
54 | UGAUAGCAAUAUUACGAUUC | -2.33 ± 0.24 | -2.41 ± 0.49
55 | UGAUAGCAAUAUUACGCAUG | -1.23 ± 0.078 | -0.48 ± 0.1
56 | UGAUAGCAAUAUUACGCCUU | -3.11 ± 0.31 | -1.32 ± 0.2
57 | UGAUAGCAAUAUUACGCGAA | -2.64 ± 0.44 | -1.49 ± 0.26
58 | UGAUAGCAAUAUUACGCUCC |  | -0.916 ± 0.3
59 | UGAUAGCAAUAUUACGCUGU | -2.61 ± 0.27 | -3.08 ± 0.38
60 | UGAUAGCAAUAUUACGCUUU | -3.56 ± 0.47 | -1.39 ± 0.15
61 | UGAUAGCAAUAUUACGGACU | -1.17 ± 0.099 | 0.214 ± 0.18
62 | UGAUAGCAAUAUUACGGAGC | -3.26 ± 0.24 | -3.25 ± 0.47
63 | UGAUAGCAAUAUUACGGAGG | -2.79 ± 0.26 | -1.56 ± 0.36
64 | UGAUAGCAAUAUUACGGAUU | -2.78 ± 0.23 | -0.278 ± 0.19
65 | UGAUAGCAAUAUUACGGCGC | -2.62 ± 0.22 | -1.18 ± 0.23
66 | UGAUAGCAAUAUUACGGUGG | -2.08 ± 0.15 | -1.53 ± 0.25
67 | UGAUAGCAAUAUUACGUAGU | -4.18 ± 0.31 | -2.38 ± 0.28
68 | UGAUAGCAAUAUUACGUCAG | -1.84 ± 0.1 | -1.03 ± 0.12
69 | UGAUAGCAAUAUUACGUCCG | -0.219 ± 0.11 | -0.0349 ± 0.13
70 | UGAUAGCAAUAUUACGUCGU | -2.06 ± 0.34 | -2.02 ± 0.35
71 | UGAUAGCAAUAUUACGUUCU | -1.68 ± 0.11 | 0.264 ± 0.11
72 | UGCAAGCAAUAUUACGAUCA | 0.00924 ± 0.069 | 0.117 ± 0.077
73 | UGCAAGCAAUAUUACGAUUG | -1.93 ± 0.14 | -1.55 ± 0.12
74 | UGCAAGCAAUAUUACGCCCU | -0.189 ± 0.15 | 0.448 ± 0.14
75 | UGCAAGCAAUAUUACGCCUG | -2.3 ± 0.13 | -2.5 ± 0.25

Row | Sequence | self-splicing fitness (ln) (30 °C) | self-splicing fitness (ln) (37 °C)
76 | UGCAAGCAAUAUUACGCGCC | -1.18 ± 0.098 | -0.427 ± 0.11
77 | UGCAAGCAAUAUUACGCGUC | -1.63 ± 0.18 | -2.93 ± 0.26
78 | UGCAAGCAAUAUUACGCUAU | -2.7 ± 0.088 | -1.49 ± 0.088
79 | UGCAAGCAAUAUUACGCUCU | -0.965 ± 0.12 | -0.235 ± 0.13
80 | UGCAAGCAAUAUUACGGACA | -0.633 ± 0.12 | -0.0695 ± 0.16
81 | UGCAAGCAAUAUUACGGACU | -0.763 ± 0.077 | 0.286 ± 0.093
82 | UGCAAGCAAUAUUACGGCUC | -1.8 ± 0.11 | -1.01 ± 0.15
83 | UGCAAGCAAUAUUACGGCUU |  | -1.72 ± 0.28
84 | UGCAAGCAAUAUUACGUACA | -0.594 ± 0.062 | 0.366 ± 0.092
85 | UGCAAGCAAUAUUACGUAUU | -3.36 ± 0.37 | -2.08 ± 0.21
86 | UGCAAGCAAUAUUACGUCCA | -0.254 ± 0.047 | 0.213 ± 0.07
87 | UGCAAGCAAUAUUACGUGCC | -0.791 ± 0.092 | -1.12 ± 0.12
88 | UGCAAGCAAUAUUACGUUGG | -2.87 ± 0.12 | -2.22 ± 0.14
89 | UGCAAGCAAUAUUACGUUUU | -4.29 ± 0.16 | -3.33 ± 0.15
90 | UGCCAGCAAUAUUACGAAAA | -2 ± 0.17 | -1.24 ± 0.14
91 | UGCCAGCAAUAUUACGAAAU | -2.86 ± 0.2 | -1.81 ± 0.17
92 | UGCCAGCAAUAUUACGACCU | -2.35 ± 0.19 | -1.34 ± 0.17
93 | UGCCAGCAAUAUUACGAGUA | -1.49 ± 0.1 | 0.112 ± 0.11
94 | UGCCAGCAAUAUUACGAUAU | -4.12 ± 0.28 | -1.74 ± 0.16
95 | UGCCAGCAAUAUUACGAUCA | -0.629 ± 0.099 | 0.465 ± 0.13
96 | UGCCAGCAAUAUUACGCCGA | -2.56 ± 0.37 | -1.07 ± 0.18
97 | UGCCAGCAAUAUUACGCGUA | -1.13 ± 0.075 | -0.301 ± 0.083
98 | UGCCAGCAAUAUUACGCUAA | -0.447 ± 0.084 | 0.0253 ± 0.095
